Experimental data taken from paper PMC5736350.

Target: CLASPIN (UniProt Q9HAW4)
Assay: anti-myc co-immunoprecipitation
Details: reference: wild-type RAD9-mH; sites T313

binding against the reference: stronger
Substance: RAD9 (from UniProt Q99638) RAD9-T313A-mH
